The record followed here is patent US20250154283A1 (published 2025).

This test concerns the target T1, biotinylated human VWF cysteine knot (CK) domain construct (human, biotin on the in vitro biotinylation tag (residue not stated); one N-glycan).
T1 construct: Disulfide-linked homodimer; also called biotinylated human VWF CK domain; human VWF CK domain construct
T1 chain: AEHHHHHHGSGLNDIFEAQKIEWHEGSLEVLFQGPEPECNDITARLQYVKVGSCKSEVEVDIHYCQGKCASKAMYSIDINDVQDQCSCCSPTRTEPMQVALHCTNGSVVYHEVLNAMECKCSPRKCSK
The test can be described thus: SPR, scFv captured on anti-SV5, pH 7.4.

B1: 2738_Lib1_scFv (scFv, not shown: small tags and cut ends)
scFv: QVQLVQSGAEVKKPGASVKVSCKVSGYTLTDLPIHWVRQAPGKGLEWMGGINPFLGTTIYAQKFQGRVTMTEDTSTDTAYMELSSLKSEDTAVYYCARGVDMLATARDYYYMAIWGKGTTVTVSSSGGSTITSYNVYYTKLSSSGTDIQMTQSPSSVSASVGDRVTITCRASQSIGNDLAWYQQKPGKAPKLLIYGASMRATGVPSRFSGSGSGTDFTLTISSLQPEDFANYYCQQYASDPLTFGGGTKVEIK
As for B1, the binding result is “binds”.

B2: 3552_Lib8_scFv (scFv, not shown: small tags and cut ends)
scFv: EVQLVESGGGLVQPGRSLRLSCAASEFTFGDYDMHWVRQAPGKGLEWVSAISSSGSNRDYADSVEGRFTISRDNAKNSLYLQMNSLRAEDTAVYYCARDAWFGDAFDIWGQGTMVTVSSSGGSTITSYNVYYTKLSSSGTDIQMTQSPSSLSASVGDRVTITCRASESVSSWLAWYQQKPGKAPKLLIYGASTLEGGVPSRFSGSGSGTDFTLTISSLQPEDVATYYCQQSYSFPDFGGGTKVEIK
For the molecule B2, the binding result is listed as “binds”.

B3: 487_Lib1_scFv (scFv, not shown: small tags and cut ends)
scFv: QVQLVQSGAEVKKPGASVKVSCKVSGYTFTSHIIHWVRQAPGKGLEWMGGMNPYSNKAIYAQKFQGRVTMTEDTSTDTAYMELSSLKSEDTAVYYCARDASDYGDYGYYYYYMDVWGKGTTVTVSSSGGSTITSYNVYYTKLSSSGTDIQMTQSPSSVSASVGDRVTITCRASQSIGDFLAWYQQKPGKAPKLLIYDASHLQTGVPSRFSGSGSGTDFTLTISSLQPEDFANYYCQQTSTIPPTFGGGTKVEIK
As for B3, the binding result is recorded as “binds”.

B4: Lib4_P2_A3_scFv (scFv, not shown: small tags and cut ends)
scFv: QVQLQESGPGLVKPSQTLSLTCTVSGVSLSTSDYSWSWIRQPPGKGLEWIGYISPPGRSDYNPSLKSRVTMSVDTSKNQFSLKVNSVTAADTAVYYCARHSSSGWYSTYDFDSWGQGTMVTVSSSGGSTITSYNVYYTKLSSSGTEIVMTQSPATLSLSPGERATLSCRASQNIHSNLAWYQQKPGQAPRLLIYGATTRATGIPARFSGSGSGTDFTLTISSLEPEDFAVYYCQQSYTTPLTFGGGTKVEIK
Take B4: the binding result was “binds”.

B5: 11485_Lib1_scFv (scFv, not shown: small tags and cut ends)
scFv: QVQLVQSGAEVKKPGASVKVSCKVSGAPSAAIIHWVRQAPGKGLEWMGGFTQIFGTAIYAQKFQGRVTMTEDTSTDTAYMELSSLKSEDTAVYYCAREGIGGHDAFDIWGQGTMVTVSSSGGSTITSYNVYYTKLSSSGTDIQMTQSPSSVSASVGDRVTITCRASQDISKNLAWYQQKPGKAPKLLIYKASKLESGVPSRFSGSGSGTDFTLTISSLQPEDFANYYCLHDYTYPPTFGGGTKVEIK
Take B5: the binding result is on record as “binds”.

B6: Lib1_P1_A1_scFv (scFv, not shown: small tags and cut ends)
scFv: QVQLVQSGAEVKKPGASVKVSCKVSGDTLSNYAIHWVRQAPGKGLEWMGGINPNAGTTIYAQKFQGRVTMTEDTSTDTAYMELSSLKSEDTAVYYCARDSSSWSQFGYYYYYMDVWGKGTTVTVSSSGGSTITSYNVYYTKLSSSGTDIQMTQSPSSVSASVGDRVTITCRASQSIGDFLAWYQQKPGKAPKLLIYDASHLQTGVPSRFSGSGSGTDFTLTISSLQPEDFANYYCQQTSTIPPTFGGGTKVEIK
In the case of B6, the binding result was “binds”.

B7: 96_Lib4_scFv (scFv, not shown: small tags and cut ends)
scFv: QVQLQESGPGLVKPSQTLSLTCTVSGESFSTSYWSWIRQPPGKGLEWIGYITHSGYTDYNPSLKSRVTMSVDTSKNQFSLKVNSVTAADTAVYYCARGGRFPFWYFDLWGRGSLVTVSSSGGSTITSYNVYYTKLSSSGTEIVMTQSPATLSLSPGERATLSCRASRSIGSNLAWYQQKPGQAPRLLIYGATTRATGIPARFSGSGSGTDFTLTISSLEPEDFAVYYCQQYKNDATFGGGTKVEIK
For the molecule B7, the binding result is “binds”.

B8: Lib6_P3_B9_scFv (scFv, not shown: small tags and cut ends)
scFv: EVQLVQSGAEVKKPGASVKVSCKASGDTFSSHVISWVRQAPGQGLEWMGGINPRTGTTIYAQKLQGRGTMTTDPSTSTAYMELRSLRSDDTAVYYCARTRPWAGLDVWGQGTTVTVSSSGGSTITSYNVYYTKLSSSGTESALTQPASVSGSPGQSITISCTGTNIEYKGVSWYQQHPGKAPKLMIYGVDKRPSGVSNRFSGSKSGNTASLTISGLQAEDEADYYCQAWGTSTAIFGGGTKLTVL
Consider B8, for which the binding result is listed as “binds”.

B9: 4166_Lib4_scFv (scFv, not shown: small tags and cut ends)
scFv: QVQLQESGPGLVKPSQTLSLTCTVSGESFSGHFWSWIRQPPGKGLEWIGYISQSGRTDYNPSLKSRVTMSVDTSKNQFSLKVNSVTAADTAVYYCARTLPRIQLWSPRGAFDIWGQGTMVTVSSSGGSTITSYNVYYTKLSSSGTEIVMTQSPATLSLSPGERATLSCRASQSLGRSLAWYQQKPGQAPRLLIYDASHRATGIPARFSGSGSGTDFTLTISSLEPEDFAVYYCQQYVSYPLTFGGGTKVEIK
Turning to B9, the binding result is recorded as “binds”.

B10: 4035_Lib1_scFv (scFv, not shown: small tags and cut ends)
scFv: QVQLVQSGAEVKKPGASVKVSCKVSGYAFPSYGIHWVRQAPGKGLEWMGGISAFTGDTIYAQKFQGRVTMTEDTSTDTAYMELSSLKSEDTAVYYCASGPTNVLTGLMESAEYFQHWGQGTLVTVSSSGGSTITSYNVYYTKLSSSGTDIQMTQSPSSVSASVGDRVTITCRASQGISRDLAWYQQKPGKAPKLLIYGASGRATGVPSRFSGSGSGTDFTLTISSLQPEDFANYYCQQSYITPTTFGGGTKVEIK
As to B10, the binding result is given as “binds”.

B11: 256_Lib8_scFv (scFv, not shown: small tags and cut ends)
scFv: EVQLVESGGGLVQPGRSLRLSCAASGFTVSSNAMHWVRQAPGKGLEWVSAIGTFADTDYADSVEGRFTISRDNAKNSLYLQMNSLRAEDTAVYYCAREGAAAGTNFDYWGQGTLVTVSSSGGSTITSYNVYYTKLSSSGTDIQMTQSPSSLSASVGDRVTITCRASQGIRSYLAWYQQKPGKAPKLLIYGASTLEGGVPSRFSGSGSGTDFTLTISSLQPEDVATYYCQQSYSTPPKFGGGTKVEIK
Consider B11, for which the binding result was “binds”.

B12: Lib4_P2_B4_scFv (scFv, not shown: small tags and cut ends)
scFv: QVQLQESGPGLVKPSQTLSLTCTVSGASLGDQYWSWIRQPPGKGLEWIGYIHPSGDFDYNPSLKSRVTMSVDTSKNQFSLKVNSVTAADTAVYYCARHYSSSWYGTWYFDLWGRGTLVTVSSSGGSTITSYNVYYTKLSSSGTEIVMTQSPATLSLSPGERATLSCRASQNIGTNLAWYQQKPGQAPRLLIYDASVRAAGIPARFSGSGSGTDFTLTISSLEPEDFAVYYCQQSLTTPLTFGGGTKVEIK
On to B12, for which the binding result was “binds”.

B13: 16_Lib8_scFv (scFv, not shown: small tags and cut ends)
scFv: EVQLVESGGGLVQPGRSLRLSCAASGFRFDEYDMHWVRQAPGKGLEWVSAISSESASIDYADSVEGRFTISRDNAKNSLYLQMNSLRAEDTAVYYCARDGAYGDYFDYWGQGTMVTVSSSGGSTITSYNVYYTKLSSSGTDIQMTQSPSSLSASVGDRVTITCRASQDIKSWLAWYQQKPGKAPKLLIYGASTLQSGVPSRFSGSGSGTDFTLTISSLQPEDVATYYCQQSYSAPYTFGGGTKVEIK
Turning to B13, the binding result was “binds”.

B14: Lib1_P1_G3_scFv (scFv, not shown: small tags and cut ends)
scFv: QVQLVQSGAEVKKPGASVKVSCKVSGYTSRQYIHWVRQAPGKGLEWMGWVTPIFGTTNYAQKFQGRVTMTEDTSTDTAYMELSSLKSEDTAVYYCAREWTGTTAFDIWGQGTLVTVSSSGGSTITSYNVYYTKLSSSGTDIQMTQSPSSVSASVGDRVTITCRASQDIGHYLAWYQQKPGKAPKLLIYAASNRASGVPSRFSGSGSGTDFTLTISSLQPEDFANYYCQQGYSAPYGFGGGTKVEIK
With B14, the binding result is reported as “binds”.

B15: 3964_Lib4_scFv (scFv, not shown: small tags and cut ends)
scFv: QVQLQESGPGLVKPSQTLSLTCTVSGASISTHSWSWIRQPPGKGLEWIGYINPSGDIDYNPSLKSRVTMSVDTSKNQFSLKVNSVTAADTAVYYCARGRTGFDSSGFVVGAFDIWGQGTMVTVSSSGGSTITSYNVYYTKLSSSGTEIVMTQSPATLSLSPGERATLSCRASQNVNDNLAWYQQKPGQAPRLLIYDASTRPTGIPARFSGSGSGTDFTLTISSLEPEDFAVYYCQQYLTIPRTFGGGTKVEIK
As for B15, the binding result was “binds”.

B16: 189_Lib4_scFv (scFv, not shown: small tags and cut ends)
scFv: QVQLQESGPGLVKPSQTLSLTCTVSGVTFSSYGWSWIRQPPGKGLEWIGYVDTSGSTDYNPSLKSRVTMSVDTSKNQFSLKVNSVTAADTAVYYCARTTYYYDSSGFARGWFDPWGQGTLVTVSSSGGSTITSYNVYYTKLSSSGTEIVMTQSPATLSLSPGERATLSCRASQSVPSSHLAWYQQKPGQAPRLLIYDATNRAAGIPARFSGSGSGTDFTLTISSLEPEDFAVYYCQQYDNWPSPSFGGGTKVEIK
Take B16: the binding result is recorded as “binds”.

B17: Lib1_P1_A2_scFv (scFv, not shown: small tags and cut ends)
scFv: QVQLVQSGAEVKKPGASVKVSCKVSEGTLSRHYINWVRQAPGKGLEWMGGINAKSGATIYAQKFQGRVTMTEDTSTDTAYMELSSLKSEDTAVYYCAKDTGDDILTDYSDAFDIWGQGTMVTVSSSGGSTITSYNVYYTKLSSSGTDIQMTQSPSSVSASVGDRVTITCRASQNIGTSLAWYQQKPGKAPKLLIYGASNLESGVPSRFSGSGSGTDFTLTISSLQPEDFANYYCLQYNDWPPLYSFGGGTKVEIK
Regarding B17, the binding result is reported as “binds”.

B18: 2301_Lib4_scFv (scFv, not shown: small tags and cut ends)
scFv: QVQLQESGPGLVKPSQTLSLTCTVSGASISTSDHSWSWIRQPPGKGLEWIGYIRDTGSTDYNPSLKSRVTMSVDTSKNQFSLKVNSVTAADTAVYYCAISSTERWKQSFGVDTEYFQHWGQGTLVTVSSSGGSTITSYNVYYTKLSSSGTEIVMTQSPATLSLSPGERATLSCRASRYVSTNLAWYQQKPGQAPRLLIYDAVTRAPGIPARFSGSGSGTDFTLTISSLEPEDFAVYYCQQYHSLPLIFGGGTKVEIK
As for B18, the binding result is “binds”.

B19: Lib4_P2_A1_scFv (scFv, not shown: small tags and cut ends)
scFv: QVQLQESGPGLVKPSQTLSLTCTVSGASFGDNYWSWIRQPPGKGLEWIGYIDTSGSSDYNPSLKSRVTMSVDTSKNQFSLKVNSVTAADTAVYYCARVSWGYYAMDVWGQGTTVTVSSSGGSTITSYNVYYTKLSSSGTEIVMTQSPATLSLSPGERATLSCRASQGISGRLAWYQQKPGQAPRLLIYDVSTRATGIPARFSGSGSGTDFTLTISSLEPEDFAVYYCQQYDTSAPLTFGGGTKVEIK
With B19, the binding result is listed as “binds”.
